The values that follow come from patent US12285465B2, “Combined treatment of primary central nervous system lymphoma” (FONDAZIONE CENTRO SAN RAFFAELE, priority 2018, dated 2025).

Data set [1] is described as follows: INGRID phase II trial: toxicity graded by NCI-NCIC CTC version 3.0. As to conditions: of 132 delivered courses; fever, chills, arterial hypertension. The data set is classed as in vivo. The protocol:
Treatment side effects were assessed separately for each chemotherapy course and graded according to the NCI-NCIC CTC version 3·0^19. The worst toxicity per organ, per patient was considered. Periodic specialist controls, ECG, troponin levels determination, and echocardiography were performed before every treatment course to exclude cardiac toxicity. The impact of treatment on cognitive functions was not assessed by ad hoc tests.
Duration of response, PFS, OS, and tolerability were the secondary endpoints. Duration of response was defined as the time from the first assessment that documents the response to the date of relapse, date of death from any cause or date of the last visit of follow-up. PFS was defined as the interval between the time of entry onto trial and failure (relapsing or progressive disease), death from any cause or date of the last visit of follow-up. OS was defined as the time from entry onto trial until death from any cause or date of the last visit of follow-up. Tolerability was defined by of grade 3-4 AEs according to NCI CTCAE^19.

Data set [2] has as its system BBB permeability in lymphomatous lesions and perilesional area. Kind of data set: BBB permeability assessed by DCE-MRI (Ktrans). The data set is classed as in vivo, human. As to conditions: tumoral/peritumoral areas. The protocol: Variations induced by NGR-hTNF in the BBB permeability at the level of the lymphomatous lesions, areas surrounding the tumor (perilesional area) and in the normal-appearing brain parenchyma were assessed by DCE-MRI. DCE acquisition followed a standard protocol^28 that included also conventional T1, T2, Flair, DWI and Dynamic Susceptibility Contrast Perfusion (DSC) sequences. […] In cases of multiple lesions, the largest one was considered. Post-processing of DCE-MRI was performed using Olea software (La Ciotat, France); all dynamic images were corrected for motion artifacts and co-registered to a volumetric post-contrast T1 sequences. Results were expressed as Ktrans values normalized using contralateral white matter. Ktrans obtained after the 2nd course (measured after NGR-hTNF infusion) were compared with those obtained after the 1st course (without NGR-hTNF) to establish the effect of TNF on BBB permeabilization. Statistically significance was assessed by Wilcoxon matched pairs test.

“Also recorded” adds a separate entry of the source.

For “NGR-hTNF: genetically engineered protein consisting of CNGRCG fused to the N-terminus of human tumor necrosis factor alpha (SEQ ID No. 1), expressed in E. coli”, the “TNF Infusion reaction Grade 1-2 (number of courses)” value in data set [1] is “nine”. Besides, in data set [2], the “vascular permeability (DCE-MRI, SPECT)” value is reported as “selectively increased vascular permeability in tumoral/peritumoral areas; also recorded: vascular permeability was increased”.
